To fix the notation:
T1: cynomolgus monkey DLL3 extracellular domain (ECD) with C-terminal 8xHis tag and Avi tag (cynomolgus monkey, UniProt A0A2K5WSR1 27-490)
T1 construct: extracellular domain; Expressed in Expi293, purified by IMAC and SEC; also called cynoDLL3; cyno DLL3; not shown: Avi tag
T1 sequence: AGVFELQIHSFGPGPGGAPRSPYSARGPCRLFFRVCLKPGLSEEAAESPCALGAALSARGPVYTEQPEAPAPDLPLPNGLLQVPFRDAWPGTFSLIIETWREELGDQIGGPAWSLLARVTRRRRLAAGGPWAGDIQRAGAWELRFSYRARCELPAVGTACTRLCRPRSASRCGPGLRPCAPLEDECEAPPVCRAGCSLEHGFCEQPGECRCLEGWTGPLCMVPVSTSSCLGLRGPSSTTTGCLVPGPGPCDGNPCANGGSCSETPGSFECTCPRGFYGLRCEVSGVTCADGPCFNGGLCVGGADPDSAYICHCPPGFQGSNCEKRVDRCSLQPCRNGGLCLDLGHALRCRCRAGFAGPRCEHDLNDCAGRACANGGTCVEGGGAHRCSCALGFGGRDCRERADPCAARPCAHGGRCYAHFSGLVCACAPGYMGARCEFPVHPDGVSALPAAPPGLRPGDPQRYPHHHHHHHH

T2: human DLL3 extracellular domain (ECD) with C-terminal 8xHis tag and Avi tag (human, UniProt Q9NYJ7 27-492)
T2 construct: extracellular domain; Expressed in Expi293, purified by IMAC and SEC; also called huDLL3; not shown: Avi tag
T2 sequence: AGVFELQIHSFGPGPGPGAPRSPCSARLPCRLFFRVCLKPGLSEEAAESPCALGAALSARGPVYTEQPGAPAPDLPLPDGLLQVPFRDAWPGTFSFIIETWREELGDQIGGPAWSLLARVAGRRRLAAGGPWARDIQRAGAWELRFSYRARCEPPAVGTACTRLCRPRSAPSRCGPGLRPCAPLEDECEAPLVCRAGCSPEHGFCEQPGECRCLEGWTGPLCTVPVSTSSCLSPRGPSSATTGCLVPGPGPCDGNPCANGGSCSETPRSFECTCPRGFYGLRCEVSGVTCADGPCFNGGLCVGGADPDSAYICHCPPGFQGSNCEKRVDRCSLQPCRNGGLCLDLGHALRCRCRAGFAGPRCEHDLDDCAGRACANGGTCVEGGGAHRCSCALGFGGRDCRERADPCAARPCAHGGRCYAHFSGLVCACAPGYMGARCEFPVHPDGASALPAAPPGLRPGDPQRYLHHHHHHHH

T3: mouse DLL3 extracellular domain (ECD) with C-terminal 8xHis tag and Avi tag (mouse, UniProt O88516 33-490)
T3 construct: extracellular domain; Expressed in Expi293, purified by IMAC and SEC; also called msDLL3; not shown: Avi tag
T3 sequence: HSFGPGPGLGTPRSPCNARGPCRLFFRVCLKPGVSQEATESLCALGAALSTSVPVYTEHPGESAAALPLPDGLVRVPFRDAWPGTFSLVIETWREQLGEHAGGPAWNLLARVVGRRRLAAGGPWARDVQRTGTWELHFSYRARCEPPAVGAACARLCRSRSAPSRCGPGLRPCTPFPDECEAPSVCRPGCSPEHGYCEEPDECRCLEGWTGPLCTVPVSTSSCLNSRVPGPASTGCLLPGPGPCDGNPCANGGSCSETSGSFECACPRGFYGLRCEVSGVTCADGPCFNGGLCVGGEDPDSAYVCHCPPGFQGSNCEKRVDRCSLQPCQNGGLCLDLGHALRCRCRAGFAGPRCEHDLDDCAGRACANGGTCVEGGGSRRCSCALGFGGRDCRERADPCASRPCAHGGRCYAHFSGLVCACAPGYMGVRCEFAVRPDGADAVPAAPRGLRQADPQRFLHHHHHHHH

B1: 17A2 scFv-Fc fusion (Fc fusion, not shown: a dimerising Fc or GST)
scFv: QVQLQESGPGLVKPSGTLSLTCVVFGDSISSSNWWSWVRQPPGKGLEWIGEVFHSGSTNYNPSLKSRVTISVDKSKNQFSLKLSSVTAADTAVYYCARAAVAGALDYWGQGTLVTVSSGGGGSGGGGSGGGGSGGGGSDIVMTQSPDSLAVSLGERATINCKSSQSVLYSSNNKNYLAWYQQKPGQPPNLLVYWASTRESGVPDRFSGAGSGTDFTLTISSLQAEDVAVYYCQQYYGTSWTFGQGTKVEIK
notes: scFv-Fc expressed in Expi293
B2: 2G1 scFv-Fc fusion (Fc fusion, not shown: a dimerising Fc or GST)
scFv: QLQLQESGPGLVKPSETLSLTCTVSGGSISSSSYYWGWIRQPPGKGLEWIGSIYYSGNIYHNPSLKSRVSISVDTSKNQFSLRLSSVTAADTAVYYCAREIIVGATHFDYWGQGTLVTVSSGGGGSGGGGSGGGGSGGGGSAIQMTQSPSSLSASVGDRVTITCRASQGIRNDLGWYQQKPGKAPELLIYAASSLQSGVPSRFSGSGSGTDFTLTISSLQPEDFATYYCLQDYNYPLTFGPGTKVDIK
notes: scFv-Fc expressed in Expi293
B3: 3F2 scFv-Fc fusion (Fc fusion, not shown: a dimerising Fc or GST)
scFv: QVQLQESGPGLVKPSGTLSLTCAVSGGSISSNNWWSWVRQPPGKGLEWIGDIHHSGSTNYKPSLKSRVTISVDKSKNQFSLNLISVTAADTAVYYCAREAGGYFDYWGQGILVTVSSGGGGSGGGGSGGGGSGGGGSDIQMTQSPSTLSASVGDRVTITCRASQSISSWLAWYQQKPGKAPKLLISKASSLESGVPSRFSGSGSGPEFTLTISSLQPADFATYYCQQYNSYSTFGQGTKLEIK
notes: scFv-Fc expressed in Expi293
B4: 2A6.C5 scFv-Fc fusion (Fc fusion, not shown: a dimerising Fc or GST)
scFv: QVQLQESGPGLVKPSETLSLTCTVSNVSISSYYWSWIRQPPGKGLEWIGYIYYSGTTNYNPSLKSRVTMSVDTSKNQFSLKLSSVTAADTAVYFCARLSNWGFAFDIWGQGTMVTFSSGGGGSGGGGSGGGGSGGGGSEIVLTQSPGTLSLSPGERATLSCRASQTISSSYLAWYQQKPGQAPRLLIYGASSRATGIPDRFSGSGSGTEFTLTISRLEPEDFAVYYCQQYGWSPITFGQGTRLEIK
notes: scFv-Fc expressed in Expi293
B5: 4H8 scFv-Fc fusion (Fc fusion, not shown: a dimerising Fc or GST)
scFv: QVQLQQSGPGLVKPSQTLSLTCAISGDSVSSNSATWNWIRQSPSRGLEWLGRTYYRSKWYDDYAVSVKSRITINPDTSKNHLSLHLNSVTPEDTAVYYCAGGGLVGAPDGFDVWGQGTMVTVSSGGGGSGGGGSGGGGSGGGGSQSVLTQPPSASGTPGQRVTISCSGSSSNIGSDPVNWYQQLPGTAPKLLIYSNNQRPSGVPDRFSGSKSGTSASLAISGLQSEDEADYYCSAWDDSLNGYVFGTGTKVTVL
notes: scFv-Fc expressed in Expi293
B6: 8E11 scFv-Fc fusion (Fc fusion, not shown: a dimerising Fc or GST)
scFv: QVQLQESGPGLVKPSETLSLTCTVSGDSISNYYWTWIRQPPGKGLEWIGYIYYSGTTNSNPSLKSRVTVSLDTSKSQFSLNLSSVTAADTAVYYCARVFNRGFAFDIWGQGTMVTVSSGGGGSGGGGSGGGGSGGGGSEIVLTQSPGTLSLSPGERATLSCRASQRISNTYLAWYQQKPGQAPRLLIYGASSRATGIPDRFSGSGSGTDFTLTISRLEPEDFAAYYCQQYDTSPLTFGGGTKVEIK
notes: scFv-Fc expressed in Expi293
B7: 26C8 scFv-Fc fusion (Fc fusion, not shown: a dimerising Fc or GST)
scFv: QVQLQESGPGLVKPSETLSLTCTVSDNSISNYYWSWIRQPPGKGLEWIAYIYYSGTTNYNPSLKSRVTISLDTSKNQFSLQLSSVTAADAAVYYCARVFHWGFAFDIWGQGTMVTVSSGGGGSGGGGSGGGGSGGGGSEIVLTQSPGTLSLSPGERATLSCRASQRVSNTYLAWYQQNPGQAPRLLIYGASSRATGIPDRFSGSGSGTDFTLTISRLEPEDFAVYYCQQYGTSPLTFGGGTKVEIK
notes: scFv-Fc expressed in Expi293
B8: 9D3 scFv-Fc fusion (Fc fusion, not shown: a dimerising Fc or GST)
scFv: QVQLQESGPGLVKPSETLSLTCTVSDDSISNYYWSWIRQPPGKGLEWIGYIFYSGTTNHNPSLKSRLTISLDKAKNQFSLRLSSVTAADTAVYYCARVFNWGFAFDIWGQGTMVTVSSGGGGSGGGGSGGGGSGGGGSEIVLTQSPGTLSLSPGERATLSCRASQRISRTYLAWYQQKPGQAPRLLIYGASSRATGIPDRFTGSGSGTDFTLTISRLEPEDFAVYYCQQYGTSPLTFGGGTKVEIN
notes: scFv-Fc expressed in Expi293
B9: 10G1-K scFv-Fc fusion (Fc fusion, not shown: a dimerising Fc or GST)
scFv: EVQLLESGGGLVQPGGSLRLSCAASGFTFSSYAMNWVRQAPGKGLEWVSTISGSGGSTYYADSVKGRFTISRDNSKNTLYLQMNSLRAEDTAVFYCAIDPEYYDILTGGDYWGQGTLVTVSSGGGGSGGGGSGGGGSGGGGSDIQMTQSPSAMSASVGDRVTITCRASQGISNYLAWFQQKPGKVPKRLIYAASSLQSGVPSRFSGSGSGTEFTLTISSLQPEDFATYFCLQHDSFPLTFGGGTKVEIK
notes: scFv-Fc expressed in Expi293
B10: 6F8 scFv-Fc fusion (Fc fusion, not shown: a dimerising Fc or GST)
scFv: QVQLVQSGAEVKKPGSSVKVSCKASGGTFTNYCISWVRQAPGQGLEWMGGIIPIFGTTNYAQTFQGRVTITADKSTSTAYMELSSLRSEDTAVYYCARDNGDRYYYDMDVWGQGTTVTVSSGGGGSGGGGSGGGGSGGGGSQSVLTQPPSVSAAPGQKVTISCSGSSSNIGNNYVSWYQQLPGTAPKLLIYDNNKRPSGIPDRFSGSKSGTSATLGITGLQTGDEADYYCGTWDSSLSAVVFGGGTKLTVL
notes: scFv-Fc expressed in Expi293
B11: 6D8 scFv-Fc fusion (Fc fusion, not shown: a dimerising Fc or GST)
scFv: QITLKESGPTLVKPTQTLTLTCTFSGFSLSTRGVGVGWIRQPPGKALEWLALIYWNDDKRYSPSLQTRLTITKDTPKNQVVLTMTNMDPVDTATYYCARSNWGNWYFALWGRGTLVTVSSGGGGSGGGGSGGGGSGGGGSEIVLTQSPATLSLSPGERATLSCRASQSVSSYLAWYQQKPGQAPRLLIYDAFYRATGIPARFSGSGSGTDFTLTISSLEPEDFAVYYCQHRSNWPITFGQGTRLEIK
notes: scFv-Fc expressed in Expi293

For one assay, the target named is T1, cynomolgus monkey DLL3 extracellular …. Briefly: SPR (Biacore), 37 C; scFv-Fc captured on chip, cyno DLL3 ECD in solution; 1:1 Langmuir fit.
Experimental: (§1) The antibody binding kinetics were determined by surface plasmon resonance (Biacore™ surface plasmon resonance (SPR) system, GE Healthcare Bio-Sciences, Pittsburgh Pa.). The antibodies diluted in HBS-T+ running buffer (0.01 M HEPES pH 7.4, 0.15 M NaCl, 0.05% v/v Tween20, 1 mg/mL BSA) were captured on a CM4 chip immobilized with an antibody specific for the anti-DLL3 antibody constant domains. Purified DLL3 was serially diluted into HBS-T+, injected for 2 min at 30 uL/min and a dissociation time of 10 min then the surface regenerated with either 10 mM Glycine-HCl pH 1.7 or phosphoric acid between injections. […] Equilibrium dissociation constant (Kd) values are calculated as koff/kₒₙ.
For B1, the Kd was < 0.00097 µM.

As to B2, binding was characterised by a dissociation constant (Kd) of 0.0205 µM.

The molecule B3 returned a Kd of 0.00681 µM.

Molecule B4 gave a dissociation constant (Kd) of 0.0468 µM.

Molecule B5 yielded a Kd of 0.027 µM.

For B6, the Kd turned out to be 0.0105 µM.

In turn, B7 showed a Kd of 0.00451 µM.

The molecule B8 had a Kd of 0.0218 µM.

Take B9: the Kd turned out to be 0.0288 µM.

Another assay has as its target T2, human DLL3 extracellular domain (ECD) …. In words: SPR (Biacore), 37 C; scFv-Fc captured on chip, human DLL3 ECD in solution; 1:1 Langmuir fit.
Experimental: as §1
In turn, B10 came in with a dissociation constant Kd of 0.0408 µM.

The molecule B1 returned a Kd of 0.00382 µM.

In the case of B2, binding was put at a Kd of 0.0172 µM.

B3 came in with a Kd of 0.00818 µM.

On to B4, for which binding was put at a Kd of 0.0484 µM.

The molecule B5 had a Kd of 0.0233 µM.

Turning to B6, the Kd was 0.0112 µM.

B7 returned an equilibrium dissociation constant (Kd) of 0.00553 µM.

For the molecule B11, the Kd is < 0.0012 µM.

Take B8: the Kd came out at 0.0233 µM.

For the molecule B9, the dissociation constant Kd was 0.0263 µM.

The target of the next assay is T3, mouse DLL3 extracellular domain (ECD) …. Briefly: SPR (Biacore), 37 C; scFv-Fc captured on chip, mouse DLL3 ECD in solution; 1:1 Langmuir fit.
Experimental: as §1
Turning to B10, the dissociation constant Kd came to 0.0193 µM.

Turning to B2, binding was characterised by a dissociation constant (Kd) of 0.00261 µM.

The molecule B4 had a Kd of 0.0421 µM.

For B5, the Kd came to 0.0186 µM.

With B6, the Kd came out at 0.00703 µM.

In turn, B7 had a Kd of 0.00305 µM.

On to B11, for which the dissociation constant Kd was < 0.0015 µM.

B8 came in with a Kd of 0.00719 µM.

The molecule B9 gave a Kd of 0.0277 µM.
